Test results reported in article PMC2746449.

Tests used:
Flag-Aub WT = biological target: T1, Flag-Aub WT (Drosophila melanogaster, UniProt O76922 1-866); test: UV crosslinking
T1 sequence: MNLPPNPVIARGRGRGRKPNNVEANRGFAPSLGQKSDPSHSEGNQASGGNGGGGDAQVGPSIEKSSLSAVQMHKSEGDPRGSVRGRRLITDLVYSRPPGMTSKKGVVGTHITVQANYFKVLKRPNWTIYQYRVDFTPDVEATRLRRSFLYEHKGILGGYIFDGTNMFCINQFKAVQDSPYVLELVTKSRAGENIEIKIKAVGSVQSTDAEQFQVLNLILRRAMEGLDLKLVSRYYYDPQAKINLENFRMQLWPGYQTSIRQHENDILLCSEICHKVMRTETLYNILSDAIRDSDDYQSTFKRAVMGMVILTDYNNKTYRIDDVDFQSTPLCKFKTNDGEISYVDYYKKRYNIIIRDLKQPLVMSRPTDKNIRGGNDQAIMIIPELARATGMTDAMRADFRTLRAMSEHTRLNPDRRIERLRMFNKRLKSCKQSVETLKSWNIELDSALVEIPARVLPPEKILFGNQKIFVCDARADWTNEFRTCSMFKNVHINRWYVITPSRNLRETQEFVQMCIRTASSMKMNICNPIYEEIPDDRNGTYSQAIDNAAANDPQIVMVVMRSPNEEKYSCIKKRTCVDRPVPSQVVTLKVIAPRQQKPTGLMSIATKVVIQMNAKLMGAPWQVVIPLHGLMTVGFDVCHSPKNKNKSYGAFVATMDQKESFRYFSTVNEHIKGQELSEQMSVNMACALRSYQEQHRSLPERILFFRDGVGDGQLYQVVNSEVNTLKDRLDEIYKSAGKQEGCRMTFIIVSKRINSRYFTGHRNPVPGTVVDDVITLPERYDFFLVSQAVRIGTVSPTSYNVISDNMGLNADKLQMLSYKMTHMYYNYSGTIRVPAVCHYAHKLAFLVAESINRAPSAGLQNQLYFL

Flag-Aub mutant (M) = biological target: T2, Flag-Aub mutant (M) (Drosophila melanogaster, UniProt O76922 1-866, R11K;R13K;R15K;R17K); test: UV crosslinking
T2 sequence: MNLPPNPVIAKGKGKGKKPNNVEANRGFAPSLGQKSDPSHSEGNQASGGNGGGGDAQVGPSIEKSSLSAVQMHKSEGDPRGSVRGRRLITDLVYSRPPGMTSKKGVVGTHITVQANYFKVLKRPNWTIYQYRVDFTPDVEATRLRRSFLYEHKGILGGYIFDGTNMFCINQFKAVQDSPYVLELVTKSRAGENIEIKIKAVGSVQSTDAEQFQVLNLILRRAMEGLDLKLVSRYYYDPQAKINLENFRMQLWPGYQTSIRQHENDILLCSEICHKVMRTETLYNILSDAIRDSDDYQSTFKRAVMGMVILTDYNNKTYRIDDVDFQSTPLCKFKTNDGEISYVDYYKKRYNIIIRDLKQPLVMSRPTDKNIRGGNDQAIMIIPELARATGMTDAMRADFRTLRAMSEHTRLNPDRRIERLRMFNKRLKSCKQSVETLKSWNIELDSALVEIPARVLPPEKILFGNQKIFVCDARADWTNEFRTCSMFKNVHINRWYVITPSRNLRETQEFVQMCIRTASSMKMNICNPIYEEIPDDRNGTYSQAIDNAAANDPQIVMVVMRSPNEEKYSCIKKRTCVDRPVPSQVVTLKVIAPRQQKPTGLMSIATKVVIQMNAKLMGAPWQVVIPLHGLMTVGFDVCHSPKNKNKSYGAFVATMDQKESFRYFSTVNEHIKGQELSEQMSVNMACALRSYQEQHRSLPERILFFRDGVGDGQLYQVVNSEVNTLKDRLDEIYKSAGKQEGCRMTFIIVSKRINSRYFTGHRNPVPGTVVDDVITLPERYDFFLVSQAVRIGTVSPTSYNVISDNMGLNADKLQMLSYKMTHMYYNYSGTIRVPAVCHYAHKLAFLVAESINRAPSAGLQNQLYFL

Does UGACAUGAACACAGGUGCUCAGAUAGCUUU (ssRNA, 4-thio-uridine (s4U) at position 1) [synthetic piRNA with s4U at position 1] bind (Flag-Aub WT)?
Result: binds

Does UGACAUGAACACAGGUGCUCAGAUAGCUUU (ssRNA, 4-thio-uridine (s4U) at position 1) [synthetic piRNA with s4U at position 1] bind (Flag-Aub mutant (M))?
Result: binds
